Assay results: patent US7241873B2, “Recombinant anti-osteopontin antibody and use thereof” (Juridical Foundation the Chemo-sero-therapeutic Research …, priority 2001, dated 2007)
Substitutions are numbered along the chain they refer to. No end group written: not given here. *: point of attachment. Biotin = O=C1N[C@H]2[C@H](CS[C@H]2CCCCC(=O)*)N1

Columns and labels:
CHO/OPN-a = biological target: T1, CHO/OPN-a (human, UniProt P10451 17-314, sugar chain-bound type (glycosylated)); experiment: Western blotting
T1 construct: mature; also called full-length OPN

GST-OPN-c = biological target: T2, GST-OPN-c (human, UniProt P08515 1-218 = GST; P10451 1-287); experiment: Western blotting
T2 construct: Isoform c of human osteopontin; made in E. coli; also called GST fusion protein of human osteopontin-c; not shown: vector-encoded junction between GST and OPN not described

[1] = biological target: thrombin-cleaved OPN (human) (UniProt P10451); experiment: cell-based or functional assay
[2] = biological target: T3, biotinylated partial peptide GRGDSVVYGLR of human osteopontin (human); experiment: SPR BIACORE-2000, biotinylated peptide on sensor chip SA, antibody as analyte, global fitting 1:1 (Langmuir)
T3 construct: Captured on a BIACORE sensor chip SA (23 RU)
T3 peptide: Biotin-GRGDSVVYGLR
Protocol: The KD value of the chimera 2K1 antibody was assayed in the following manner. First, a partial peptide GRGDSV-VYGLR (residues 7–17 of SEQ ID NO: 1) of the human osteopontin was biotinylated with a biotinylation kit (Dojindo Corporate). A sensor chip SA was set on BIA-CORE-2000, to bind 23 RU of a ligand (Bin-GRGDSV-VYGLR)(residues 7–17 of SEQ ID NO: 1). […] The data of these sensor grams were analyzed by global fitting at 1:1 (Langmuir) binding by a BIACORE analysis software BIA Evaluation Version 3.0. FIG. 6a is a sensor gram at various concentrations of the murine 2K1 antibody. FIG. 6b is a sensor gram at various concentrations of the chimera 2K1 antibody.
As the results of the measurement, the KD value of the murine 2K1 antibody was 1.2 ×10^-10 M, while the KD value of the chimera 2K1 antibody was 9.2 ×10^-11 M. No reduction of the affinity of the chimera 2K1 antibody was observed due to the chimera preparation of the murine 2K1 antibody.

bovine serum albumin = biological target: T4, bovine serum albumin (bovine, UniProt P02769 25-607); experiment: ELISA on a plate with BSA alone, detection with protein A-HRP and TMB, OD450
T4 construct: also called BSA

[3] = biological target: T5, BSA-crosslinked osteopontin peptide BSA-CVDTYDGRGDSVVYGLRS (human, also: crosslinked to BSA, linkage chemistry not given here); experiment: ELISA on a plate with BSA-CVDTYDGRGDSVVYGLRS, detection with protein A-HRP and TMB, OD450
T5 construct: Peptide carries an added N-terminal cysteine; immobilized on a microtiter plate as BSA conjugate; also called Peptide 1
T5 peptide: {BSA}-CVDTYDGRGDSVVYGLRS

[4] = biological target: BSA-crosslinked osteopontin peptide (BSA-CVDTYDGRGDSVVYGLRS) (Homo sapiens, UniProt P10451); experiment: ELISA binding to osteopontin peptide
Excerpt: Based on the concentrations of the humanized 2K1 antibody and the chimera 2K1 antibody as determined in Example 13, the binding activities of the humanized 2K1 antibody and the chimera 2K1 antibody with osteopontin peptide (CVDTYDGRGDSVVYGLRS) (SEQ ID NO: 1) were compared with reference to the ELISA of Kon et al. (Journal of Cellular […]: 420–432 (2002)).
Dilution series of the humanized 2K1 antibody and the chimera 2K1 antibody reacted on a microtiter plate with BSA-crosslinked osteopontin peptide (BSA-CVDTYDGRGDSVVYGLRS)(SEQ ID NO: 1) immobilized thereon. Then, the antibodies bound to BSA-CVDTYDGRGDSVVYGLRS (SEQ ID NO: 1) reacted with protein A-HRP, and finally with TMB (Dojindo Corporate), to measure the absorbance at a wavelength of 450 nm.
Additionally, reaction on a plate with only BSA immobilized thereon as a negative control was also measured in the same manner.
As a negative control, additionally, the binding activity of the chimera 2K1 antibody to BSA (open circle) and the binding activity of the humanized 2K1 antibody to BSA (open square) are also shown.

Sequence of thrombin-cleaved OPN (human) (P10451 17-168 limits assumed, form in doubt, chain 1 of 2): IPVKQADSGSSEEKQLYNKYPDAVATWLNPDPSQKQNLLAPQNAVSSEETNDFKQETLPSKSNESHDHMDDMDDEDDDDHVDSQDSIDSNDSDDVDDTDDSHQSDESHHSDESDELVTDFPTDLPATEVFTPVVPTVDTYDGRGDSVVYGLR
Sequence of thrombin-cleaved OPN (human) (P10451 169-314 limits assumed, form in doubt, chain 2 of 2): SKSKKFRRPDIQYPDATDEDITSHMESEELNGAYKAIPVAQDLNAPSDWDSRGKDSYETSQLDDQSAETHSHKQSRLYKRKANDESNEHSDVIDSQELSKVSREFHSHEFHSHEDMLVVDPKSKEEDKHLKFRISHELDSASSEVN
T4 sequence (P02769 25-607 limits assumed): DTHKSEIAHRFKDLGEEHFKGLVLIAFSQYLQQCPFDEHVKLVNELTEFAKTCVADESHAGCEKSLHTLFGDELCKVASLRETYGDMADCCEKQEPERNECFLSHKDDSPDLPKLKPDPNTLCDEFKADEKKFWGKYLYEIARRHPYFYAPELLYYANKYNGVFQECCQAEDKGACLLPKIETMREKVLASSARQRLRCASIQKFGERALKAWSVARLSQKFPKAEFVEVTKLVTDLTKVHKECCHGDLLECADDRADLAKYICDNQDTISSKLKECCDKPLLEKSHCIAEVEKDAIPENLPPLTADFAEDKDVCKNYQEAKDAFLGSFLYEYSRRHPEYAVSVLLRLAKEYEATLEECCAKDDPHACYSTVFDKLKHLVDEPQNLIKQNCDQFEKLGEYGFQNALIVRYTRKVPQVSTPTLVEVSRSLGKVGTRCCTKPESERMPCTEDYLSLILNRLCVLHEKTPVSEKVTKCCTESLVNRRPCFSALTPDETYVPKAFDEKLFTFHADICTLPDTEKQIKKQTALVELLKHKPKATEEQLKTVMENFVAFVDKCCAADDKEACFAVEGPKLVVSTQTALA
T2 sequence (P08515 1-218, tags or fused parts left off): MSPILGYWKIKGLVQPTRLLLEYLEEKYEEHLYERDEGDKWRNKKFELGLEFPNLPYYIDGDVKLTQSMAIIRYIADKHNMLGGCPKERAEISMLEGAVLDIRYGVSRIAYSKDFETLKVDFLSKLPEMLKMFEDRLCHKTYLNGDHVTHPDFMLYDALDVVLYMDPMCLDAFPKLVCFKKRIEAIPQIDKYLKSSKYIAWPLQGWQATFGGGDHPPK
T1 sequence (P10451 17-314): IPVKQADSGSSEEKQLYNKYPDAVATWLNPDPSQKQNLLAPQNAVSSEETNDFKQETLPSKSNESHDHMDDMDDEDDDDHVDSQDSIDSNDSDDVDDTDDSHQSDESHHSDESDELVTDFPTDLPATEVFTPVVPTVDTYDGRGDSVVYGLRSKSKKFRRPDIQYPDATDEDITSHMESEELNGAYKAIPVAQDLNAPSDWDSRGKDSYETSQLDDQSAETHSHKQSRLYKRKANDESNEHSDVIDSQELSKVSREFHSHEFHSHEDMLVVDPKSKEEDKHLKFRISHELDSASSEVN

B1: murine monoclonal antibody 2K1 (antibody, V domains shown)
VH: QVQLQQSGAELVRPGASVKLSCKALGYTFTDYEMHWVKQTPVHGLEWIGAIHPGRGGTAYNQKFKGKATLTADKSSSTAYMELSSLTSEDSAVYYCTRITGYFDVWGAGTTVTVSS
VL: DVLMTQTPLSLPVSLGDQASISCRSSQSIVHSNGNTYLEWYLQKPGQSPKLLIYKVSNRFSGVPDRFSGSGSGTDFTLKISRVEAEDLGVYYCFQGSHVPLTFGAGTKLELKR
notes: also called murine 2K1 antibody; murine antibody 2K1
CHO/OPN-a
  binding result: binds
GST-OPN-c
  binding result: binds
[1]
  Mean migrating cell counts per 1 mm^3; monocyte; thrombin-cleaved OPN 10 µg/mL, murine 2K1 antibody 0.4 µg/mL (cells per 1 mm^3): 258
  Mean migrating cell counts per 1 mm^3; monocyte; thrombin-cleaved OPN 10 µg/mL, murine 2K1 antibody 2 µg/mL (cells per 1 mm^3): 257
  Mean migrating cell counts per 1 mm^3; monocyte; thrombin-cleaved OPN 10 µg/mL, murine 2K1 antibody 10 µg/mL (cells per 1 mm^3): 160
  Mean migrating cell counts per 1 mm^3; monocyte; thrombin-cleaved OPN 10 µg/mL, murine 2K1 antibody 50 µg/mL (cells per 1 mm^3): 75
  Mean migrating cell counts per 1 mm^3; neutrophil; thrombin-cleaved OPN 10 µg/mL, murine 2K1 antibody 0.4 µg/mL (cells per 1 mm^3): 567
  Mean migrating cell counts per 1 mm^3; neutrophil; thrombin-cleaved OPN 10 µg/mL, murine 2K1 antibody 2 µg/mL (cells per 1 mm^3): 550
  Mean migrating cell counts per 1 mm^3; neutrophil; thrombin-cleaved OPN 10 µg/mL, murine 2K1 antibody 10 µg/mL (cells per 1 mm^3): 450
  Mean migrating cell counts per 1 mm^3; neutrophil; thrombin-cleaved OPN 10 µg/mL, murine 2K1 antibody 50 µg/mL (cells per 1 mm^3): 427
[2]
  Kd: 0.12 nM

B2: humanized 2K1 antibody (antibody, V domains shown)
VH: QVQLVQSGAEVKKPGSSVKVSCKASGGTFSDYEMHWVRQAPGQGLEWMGAIHPGRGGTAYNQKFKGRVTITADKSTSTAYMELSSLRSEDTAVYYCARITGYFDVWGQGTTVTVSS
VL: B1 VL with L3V, T7S, S14T, D17Q, Q18P, K50Q, L88V, A105Q, L111I
notes: Human Igγ1 / Igκ constant regions (vectors AG-γ1 and AG-κ); Tested as CHO-DG44 culture supernatant; also called R2K1 antibody
Bovine serum albumin
  binding result: no binding (tested: 50 ng/ml)
[3]
  binding result: binds

B3: mouse-human chimera 2K1 antibody (antibody, V domains shown)
VH: B1 VH
VL: B1 VL
notes: Expressed in CHO-DG44; also called C2K1 antibody; 2K1 chimera antibody
Bovine serum albumin
  binding result: no binding (tested: 50 ng/ml)
[3]
  binding result: binds
[2]
  Kd: 0.092 nM

B4: humanized 2K1 antibody: humanized antibody with CDRs of murine 2K1; VH SEQ ID NO: 28, VL SEQ ID NO: 30, human Igγ1/Igκ (antibody, V domains shown)
VH: MDWTWRVFCLLAVAPGAHSQVQLVQSGAEVKKPGSSVKVSCKASGGTFSDYEMHWVRQAPGQGLEWMGAIHPGRGGTAYNQKFKGRVTITADKSTSTAYMELSSLRSEDTAVYYCARITGYFDVWGQGTTVTVSS
VL: MGWSCIILFLVATATGVHSDVVMTQSPLSLPVTLGQPASISCRSSQSIVHSNGNTYLEWYLQKPGQSPQLLIYKVSNRFSGVPDRFSGSGSGTDFTLKISRVEAEDVGVYYCFQGSHVPLTFGQGTKLEIKR
modifications: human IgG1/kappa constant regions
[4]
  antigen binding activity compared with the original murine 2K1 antibody: identical to that of the original murine 2K1 antibody
[4]; ELISA, absorbance 450 nm, FIG. 13
  binding activity to BSA-CVDTYDGRGDSVVYGLRS: had binding activities
[4]; ELISA, plate with only BSA immobilized
  binding activity to BSA (negative control plate): not to BSA
[4]; humanized versus chimera 2K1 antibody
  comparison of binding activities of both antibodies to BSA-CVDTYDGRGDSVVYGLRS: at the same level
